Experiments:
[1] = system: MS2 coat protein; test: apparent KD of MS2 coat protein, switch ON state; designed switch direction (-1 OFF switch, 1 ON switch): -1; higher = weaker reporter binding; conditions: FMN input: 0 or 200 uM; Eterna round: R93 (includes R88 designs)
Outline: (§1)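 With or without constant ligand, designed RNA switches in 100 mM Tris-HCl pH 7.5, 80 mM KCl and 4 mM MgCl2 were titrated with SNAP-549-labelled MS2 coat protein. Concentrations went up in twofold steps from 0.7 or 1.5 nM to 3 µM. The switches had been transcribed on-chip from Illumina sequencing clusters, and apparent KD is the per-design median of normalised cluster binding-curve fits.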

[2] = system: MS2 coat protein; test: apparent KD of MS2 coat protein, switch OFF state (with FMN for OFF switches, without FMN for ON switches); designed switch direction (-1 OFF switch, 1 ON switch): -1; higher = weaker reporter binding; conditions: FMN input: 0 or 200 uM; Eterna round: R93 (includes R88 designs)
Outline: as §1

[3] = system: MS2 coat protein; test: apparent KD of MS2 coat protein; designed switch direction (-1 OFF switch, 1 ON switch): 1; higher = weaker reporter binding
Outline: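 Transcription of designed RNA switches on Illumina chips was done by stalled E. coli RNA polymerase. SNAP-549-labelled MS2 coat protein was then titrated in doubling steps from 0.7 or 1.5 nM to 3 µM, with steps of 0.8–1.5 h at the lowest and 10–20 min at the highest concentration. The per-design median over clusters of curve-fitted normalised fluorescence is reported as apparent KD.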

[4] = input ligand: microRNA oligo, concentration not stated
[5] = Eterna round: R95, input ligand: FMN 200 uM
[6] = Eterna round: R95, input ligand: microRNA oligo, concentration not stated
[7] = Eterna round: R95, input ligand: none

Sequence	apparent KD of MS2 coat protein [1] [µM]	apparent KD of MS2 coat protein [2] [µM]	apparent KD of MS2 coat protein ([3]; input ligand: FMN 200 uM) [µM]	apparent KD of MS2 coat protein [3, 4] [µM]	apparent KD of MS2 coat protein ([3]; input ligand: none) [µM]	further results
AAAAAACAUGAGGAUCACCCAUGUGAGGAUAUCGCUAGUGAGGCCAUAGUGUCAGUGAUGAGAAGGCACAUAAA [Brourd 613 Mod 9 - Jieux - Exclusion 1]	0.0377	0.0308				
AAAAAACAUGAGGAUCACCCAUGUGAGGAUAUCUGUAUUCAAUCCUCGGAUUGAAUACAGAGAAGGCACAUGGG [Ex1: 609]	0.0139	0.0142				
AGCUAGUCAGGAUAUACAAAAUGAUUGCAAAAGCAAUCAACACAUGAGGAUCACCCAUGUAGAAGGGACUAGCA [Mat - Exclusion 2 - JL-Eli mod - D44]	0.019	0.0194				
AAGAUGUAAGGAUAUGCUGCUCGUCACAAAAGUGAUGAGUAGCAGAAGGUACAUGAGGAUCACCCAUGUAAAGA [JL eternac mod 10]	0.0315	0.044				
UAGGUACGAGGAUAUACAUAGAUACAGACACAUGUAGAUGUACAUGAGGAUCACCCAUGUAGAAGGCGUAUAUA [Mat - Same state - Mayanna Mod - D110]	0.0526	0.142				
AAAGGACAUGAGGAUCACCCAUGUGAGGAUAUCGGAAAAGGAAAAAUAAAAAAGAAGACGAGAAGGCACACCAA [Mat - Exclusion 1 - Eli mod - D76]	0.0806	0.0598				
AAAAAGUCAGGAUAUCGUAGAAAAAUAUAAAUAAGAAAGUACGAGAAGGGACAUGAGGAUCACCCAUGUAAAAA [Ex 4 #1]	0.05	0.0368				
AAAGUGUGAGGAUAUGUCAAAGGACACGAAAGUGACAAAGGACAGAAGGUACAUGAGGAUCACCCAUGUAAAAA [milkweed 18]	0.0273	0.0206				
AAACGUACAGGAUAUACGAAAAGAUUACGAAAGUAAUCGGGACAUGAGGAUCACCCAUGUAGAAGGGUACGAAA [Mod2 of Meechl 64% 4]	0.048	0.0617				
AUAAAGUGAGGAUAUGCUAAGAAGUAAAUAGACAAAUAAAUGCAGAAGGCACAUGAGGAUCACCCAUGUAAGAA [Ex 4 Tesla 4]	0.0359	0.0262				
AGCUAGUCAGGAUAUACGAACAUGUCACAAGACGUGAAGGGACAUGAGGAUCACCCAUGUAGAAGGGACUAGCA [74%, Web mod - With 1 more C's]	0.0529	0.203				
CUCAUGUUAGGAUAUAAAUGAAAUGAAGUGAAAGAAAAGAAUUAGAAGGAACAUGAGGAUCACCCAUGUUAGAA [EteRNA is fun!]	0.0478	0.0376				
AUAAAACAUGAGGAUCACCCAUGUGAGGAUAUCUGAAAAAAAAAAAGAAAAAAAAAAAAGAGAAGGCACAAUAA [Amethyst 44]	0.0651	0.0794				
GUUACAUGAGGAUCACCCAUGUAUGUGUGGGAGUAAGUGUCUUAGGAUAUCUAUUAUUUAAUUGAAGAGAAGGAAGAUUGUUGU [JMF's solution 26] (Eterna round: R96, puzzle: Same State NG 3)			0.16	0.095	0.112	
UAGAGAGGAAGCGAGGAUAUCGUGUUAGGUACAUGAGGAUCACCCAUGUUGUAGGUAGAGGUAGGCGAGAAGGCGCAGGAGAGGG [JR_SS2_Sub093] (puzzle: Same State 2)						apparent KD of MS2 coat protein [3, 5]: 0.0563 µM; apparent KD of MS2 coat protein [3, 6]: 0.0471 µM; apparent KD of MS2 coat protein [3, 7]: 0.0838 µM
GCCAACUAAUGAGGAUAUGGCACCUUAUUGGUGCCAGAAGGCAUGUCAAAAGACAUGAGGAUCACCCAUGUAUUAUAGUUGGCA [Mat - Same State NG 1 - JL mod - D73] (Eterna round: R96, puzzle: Same State NG 1)			0.0255	0.0625	0.304	
GCGGAACGGGCCGACAUGAGGAUCACCCAUGUGGCCUCAUGUCAGGAUAUCGGGAAGAAGAAAACCGAGAAGGGACGGUGACGC [AK SSNG3-V2-32] (Eterna round: R96, puzzle: Same State NG 3)			0.00818	0.0298	0.0222	

Sequence	apparent KD of MS2 coat protein [1] [µM]	apparent KD of MS2 coat protein [2] [µM]	apparent KD of MS2 coat protein ([3]; input ligand: FMN 200 uM) [µM]	apparent KD of MS2 coat protein [3, 4] [µM]	apparent KD of MS2 coat protein ([3]; input ligand: none) [µM]	further results
CUCAAACAUGAGGAUCACCCAUGUGUUGUCAUGGGAGGAUAUCCCAGUUCGGUGACGUCGGGAGAAGGCCUAUGUC [× ×•×ª×• ×ž×“×™× ×” × ×—×ª-15] (puzzle: Same State 1)						apparent KD of MS2 coat protein [3, 6]: 0.0777 µM
AGCUAUUAAUCAGGAUAUGGUCACAUGAGGAUCACCCAUGUAUAGAUGAUUAAAUGUGGUCUAAACUAGAAGGGAUUGCUAACA [SameState NG2 #56] (Eterna round: R96, puzzle: Same State NG 2)			0.414	0.523	0.421	
GUUAUACAUGAGGAUCACCCAUGUCAAUGUAGUCGAGGAUAUGGGUAGCUAUGAGGCGUACUAGAAGGCGAGGAGU [JL-ss1-3.16 ViennaUCT mod] (Eterna round: R96, puzzle: Same State 1)			0.503	0.246	0.477	
GAGCCAGUCCGAGGAUAUUCAACAUGAGGAUCACCCAUGUAGGCUCAGAAAAGAAAAGAGCCUUGGGAGAAGGCGGACUGGCUC [Xeonanisa<<7] (Eterna round: R96, puzzle: Same State NG 2)			0.00961	0.00901	0.0141	
CACCCAAAGGAAGGAUAUAGGGACUCGAGGACAACAUGAGGAUCACCCAUGUCCCGCCAUCGGCCUUAGAAGGUCCAAGGGAAC [Eternabot solution 7] (Eterna round: R96, puzzle: Same State NG 2)			0.0188	0.0171	0.0218	
GCGAAAGCAGGAGGAUAUGCAGAGGAUCACCCUGUAGAAGGCCACAGAGGAGGAUAUGCAGAGGAUCACCCUGUAGAAGGCCAC [pwkr ssNG DX.17] (Eterna round: R96, puzzle: Same State NG 1)			0.176	0.262	0.303	
GCCCAUAGUAUAUGGGUACAAGCUUUUUAACAUGAGGAUCACCCAUGUACUCGUCUUAUGUGCAGUCCGUAGACUGC [JL-shm-2.17 Brourd mod] (puzzle: Sensor for hsa-mir-208a)						apparent KD of MS2 coat protein [3, 5]: 0.0864 µM; apparent KD of MS2 coat protein [3, 6]: 0.014 µM; apparent KD of MS2 coat protein [3, 7]: 0.0823 µM
UAGAGAGGAAGCGAGGAUAUCGUGGGAGGAACAUGAGGAUCACCCAUGUGUGAUGUUGAGAGGGACGAGAAGGCGCUGGAAAUUA [JR_SS2_Sub081] (puzzle: Same State 2)						apparent KD of MS2 coat protein [3, 5]: 0.0991 µM; apparent KD of MS2 coat protein [3, 6]: 0.126 µM; apparent KD of MS2 coat protein [3, 7]: 0.174 µM
UACAAUCUAUCUGAGGAUAUCAUGAAUUAUACAUGAGGAUCACCCAUGUGCAGGAAAACUGCAUAUGAGAAGGCAGAUAGAUUGU [salish99_ss2_r3_062] (puzzle: Same State 2)						apparent KD of MS2 coat protein [3, 5]: 0.0634 µM; apparent KD of MS2 coat protein [3, 6]: 0.0436 µM; apparent KD of MS2 coat protein [3, 7]: 0.183 µM
AUAAGUUCGAUGCUCGUCUCUCCGUACAAACAUGAGGAUCACCCAUGUGAUUAGGCAGUAGCCCAAUCAGUAUGGCC [Ariusveri] (puzzle: Sensor for hsa-mir-208a)						apparent KD of MS2 coat protein [3, 5]: 0.0387 µM; apparent KD of MS2 coat protein [3, 6]: 0.0218 µM; apparent KD of MS2 coat protein [3, 7]: 0.0434 µM
AGUCCAGCCUGAGCUGGACAAAAGCAUGUACAUGAGGAUCACCCAUGUCAUGUACAAGUUUUUUGCUCGUCUUAAAA [Zipper 46 - 11] (puzzle: Sensor for hsa-mir-208a)						apparent KD of MS2 coat protein [3, 5]: 0.0377 µM; apparent KD of MS2 coat protein [3, 6]: 0.013 µM; apparent KD of MS2 coat protein [3, 7]: 0.0406 µM
AACAAUCUAUCUGAGGAUAUCAUGAUAUAAACAUGAGGAUCACCCAUGUGCAGGAAAACUGCAUAUGAGAAGGCAGAUAGAUUGA [salish99_ss2_r3_031] (puzzle: Same State 2)						apparent KD of MS2 coat protein [3, 5]: 0.043 µM; apparent KD of MS2 coat protein [3, 6]: 0.232 µM; apparent KD of MS2 coat protein [3, 7]: 0.118 µM
UCUCGGGUCGUAGGAUAUGUAGGAUAUGUACAUGAGGAUCACCCAUGUCUACCAGAGACAGAAGGACAGAAGGACGAGCCGAGC [pwkr ssNG2 2FMN 1F5s.7] (Eterna round: R96, puzzle: Same State NG 2)			0.0195	0.019	0.0363	
AGCUAUUAAUCAGGAUAUGGUCACAUGAGGAUCACCCAUGUAUAGAUGAUAAAAUGUGGUCAAUACUAGAAGGGAUUGCUAACA [SameState NG2 #63] (Eterna round: R96, puzzle: Same State NG 2)			0.433	0.266	0.386	
ACAUUUAGCUCGUGCACAUGAGGAUCACCCAUGUUCAGUUCACAGGAUAUCUAGUCAAACGGAUCGGAGAAGGGUGGCAGGAGC [Quceon] (Eterna round: R96, puzzle: Same State NG 3)			0.0399	0.121	0.123	
GUUAGGAAUCUAGCAAACAUGAGGAUCACCCAUGUUAGUGGGAAGGAUAUGGUACAGAAACUGUACCAGAAGGUCUUAUUGUUU [Omei SS(NG) 3 AV9] (Eterna round: R96, puzzle: Same State NG 3)			0.58	0.403	0.439	
